One series deals with T1, Rad50 WT (Saccharomyces cerevisiae, UniProt P12753 1-1312).
T1 sequence: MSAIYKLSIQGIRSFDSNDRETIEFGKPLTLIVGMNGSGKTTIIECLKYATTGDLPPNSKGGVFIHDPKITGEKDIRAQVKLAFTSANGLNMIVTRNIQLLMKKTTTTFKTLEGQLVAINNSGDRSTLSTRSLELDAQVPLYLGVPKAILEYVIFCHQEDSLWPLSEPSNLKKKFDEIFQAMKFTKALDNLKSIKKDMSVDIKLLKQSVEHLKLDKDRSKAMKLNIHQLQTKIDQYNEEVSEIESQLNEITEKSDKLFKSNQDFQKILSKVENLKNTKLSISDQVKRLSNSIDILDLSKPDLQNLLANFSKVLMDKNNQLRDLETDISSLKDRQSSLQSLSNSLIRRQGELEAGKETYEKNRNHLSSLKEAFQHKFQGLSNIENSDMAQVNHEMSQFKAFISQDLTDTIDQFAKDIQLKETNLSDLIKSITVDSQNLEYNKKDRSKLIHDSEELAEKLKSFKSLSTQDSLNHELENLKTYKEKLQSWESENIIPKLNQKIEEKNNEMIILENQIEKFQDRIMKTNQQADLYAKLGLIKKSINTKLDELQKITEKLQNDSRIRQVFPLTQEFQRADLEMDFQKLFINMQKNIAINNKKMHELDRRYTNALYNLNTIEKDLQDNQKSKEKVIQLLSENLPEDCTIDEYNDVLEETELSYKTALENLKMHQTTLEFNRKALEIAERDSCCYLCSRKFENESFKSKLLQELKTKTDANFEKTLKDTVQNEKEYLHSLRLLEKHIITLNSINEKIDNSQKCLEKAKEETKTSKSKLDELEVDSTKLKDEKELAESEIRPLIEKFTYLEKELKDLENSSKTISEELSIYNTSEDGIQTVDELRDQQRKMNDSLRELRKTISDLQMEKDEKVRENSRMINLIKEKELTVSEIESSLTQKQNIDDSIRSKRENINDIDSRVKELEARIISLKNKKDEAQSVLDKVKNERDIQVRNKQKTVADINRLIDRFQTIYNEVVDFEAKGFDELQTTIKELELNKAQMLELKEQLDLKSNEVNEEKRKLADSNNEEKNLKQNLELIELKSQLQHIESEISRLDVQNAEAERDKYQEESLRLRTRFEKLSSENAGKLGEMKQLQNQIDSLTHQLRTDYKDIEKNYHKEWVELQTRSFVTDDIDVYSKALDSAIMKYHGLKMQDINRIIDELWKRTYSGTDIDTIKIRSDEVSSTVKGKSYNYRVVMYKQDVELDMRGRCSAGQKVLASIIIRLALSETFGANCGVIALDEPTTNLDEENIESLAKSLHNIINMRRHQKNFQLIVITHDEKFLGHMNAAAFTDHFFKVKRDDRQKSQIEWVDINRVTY
Nature of the series: EMSA.

Another series has as its target T2, Rad50-R1201A (Saccharomyces cerevisiae, UniProt P12753 1-1312, R1201A).
T2 sequence: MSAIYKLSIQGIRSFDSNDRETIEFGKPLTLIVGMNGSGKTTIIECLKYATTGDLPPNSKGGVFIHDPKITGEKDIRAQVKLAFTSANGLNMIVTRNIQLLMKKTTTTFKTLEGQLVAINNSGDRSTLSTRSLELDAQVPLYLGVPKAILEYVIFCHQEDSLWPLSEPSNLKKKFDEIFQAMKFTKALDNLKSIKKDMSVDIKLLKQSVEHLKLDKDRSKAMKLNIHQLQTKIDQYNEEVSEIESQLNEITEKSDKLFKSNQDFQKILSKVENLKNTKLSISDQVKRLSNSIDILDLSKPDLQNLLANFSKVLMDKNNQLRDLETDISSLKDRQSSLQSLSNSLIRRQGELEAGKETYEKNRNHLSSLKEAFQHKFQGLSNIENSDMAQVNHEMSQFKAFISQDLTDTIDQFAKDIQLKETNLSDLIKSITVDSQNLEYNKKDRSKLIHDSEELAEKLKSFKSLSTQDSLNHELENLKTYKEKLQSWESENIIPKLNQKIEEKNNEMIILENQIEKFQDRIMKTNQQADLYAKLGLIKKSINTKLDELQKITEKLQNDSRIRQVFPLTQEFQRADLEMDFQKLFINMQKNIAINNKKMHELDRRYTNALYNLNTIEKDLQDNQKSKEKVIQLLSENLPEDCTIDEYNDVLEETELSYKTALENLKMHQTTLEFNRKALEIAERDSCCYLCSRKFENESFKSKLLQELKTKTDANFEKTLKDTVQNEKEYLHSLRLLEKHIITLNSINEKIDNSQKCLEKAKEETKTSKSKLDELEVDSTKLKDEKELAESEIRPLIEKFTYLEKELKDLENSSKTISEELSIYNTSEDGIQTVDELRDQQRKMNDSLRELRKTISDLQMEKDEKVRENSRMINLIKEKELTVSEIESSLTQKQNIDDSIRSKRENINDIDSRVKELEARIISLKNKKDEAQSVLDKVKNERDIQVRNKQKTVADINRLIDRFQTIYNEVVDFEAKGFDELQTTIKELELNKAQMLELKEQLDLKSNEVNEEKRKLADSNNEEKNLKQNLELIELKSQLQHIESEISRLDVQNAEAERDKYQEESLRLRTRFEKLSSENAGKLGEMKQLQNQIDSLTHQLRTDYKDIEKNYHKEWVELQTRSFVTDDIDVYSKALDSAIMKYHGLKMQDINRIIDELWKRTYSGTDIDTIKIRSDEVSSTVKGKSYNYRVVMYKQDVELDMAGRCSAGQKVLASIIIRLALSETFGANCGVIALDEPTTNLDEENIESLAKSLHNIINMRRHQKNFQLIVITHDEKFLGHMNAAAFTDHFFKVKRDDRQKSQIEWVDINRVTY
Nature of the series: EMSA.

The record followed here is paper PMC12343972 (Nature Communications, 2025).

B1: 83-mer dsDNA (EMSA) (dsDNA)
DNA 1: TTGATAAGAGGTCATTTTTGCGGATGGCTTAGAGCTTAATTGCTGAATCTGGTGCTGTAGCTCAACATGTTTTAAATATGCAA
DNA 2: TTGCATATTTAAAACATGTTGAGCTACAGCACCAGATTCAGCAATTAAGCTCTAAGCCATCCGCAAAAATGACCTCTTATCAA
With B1, the binding result with Rad50 WT and in the series with Rad50-R1201A was “binds” throughout.
